Measurements from US20060134719A1, “Novel serine protease” (priority 2002, published 2006).
*: point of attachment. AMC = Cc1cc(=O)oc2cc(N*)ccc12; Boc = CC(C)(C)OC(=O)*; OBn = c1ccc(CO*)cc1

Key:
Format in all cases: biochemical
[1] = target: T1, purified signal-FLAG-ARS-extracellular enzyme after the treatment with trypsin beads (Homo sapiens, UniProt Q7Z410, INS90FVSSFQKTELEASCVGCSVLNYRDGNSSVLVHFQ); assay: Detection of enzyme activity using physiologically active peptides (HPLC); settings: peptide 0.1 mM in 100 mM ammonium hydrogen carbonate pH 8, 37° C. for 16 hours; versus buffer control
T1 construct: FLAG (N); made in house; host or cells: HEK293-EBNA
T1 sequence (Q7Z410 with tags, fused parts or gaps): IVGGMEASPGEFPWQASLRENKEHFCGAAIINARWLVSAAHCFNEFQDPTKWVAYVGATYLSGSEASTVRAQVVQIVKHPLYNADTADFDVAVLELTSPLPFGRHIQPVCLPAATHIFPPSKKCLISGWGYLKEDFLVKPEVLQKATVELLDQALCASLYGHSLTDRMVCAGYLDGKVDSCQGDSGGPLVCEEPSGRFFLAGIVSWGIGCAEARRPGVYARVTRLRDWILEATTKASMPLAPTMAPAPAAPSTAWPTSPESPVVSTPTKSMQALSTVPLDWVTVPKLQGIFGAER
T1 sequence (Q7Z410 with tags, fused parts or gaps INS90FVSSFQKTELEASCVGCSVLNYRDGNSSVLVHFQ): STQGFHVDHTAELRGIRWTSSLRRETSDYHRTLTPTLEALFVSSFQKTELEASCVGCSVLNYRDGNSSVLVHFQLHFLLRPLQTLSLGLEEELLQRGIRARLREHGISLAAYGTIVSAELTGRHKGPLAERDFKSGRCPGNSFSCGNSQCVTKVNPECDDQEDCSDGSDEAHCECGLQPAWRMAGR
Experimental: The purified signal-FLAG-ARS-extracellular enzyme after the treatment with trypsin beads in the same manner as in the method of Example 9 was used as an enzyme sample and was mixed with the following physiologically active peptides for reaction at 37° C. for 16 hours, to detect the enzyme activity. As a control without addition of enzyme, an ammonium hydrogen carbonate buffer was used. The peptides were adjusted to 0.1 mM in 100 mM ammonium hydrogen carbonate solution of pH 8. The peptides used were adenocorticotropic hormone (ACTH), angiotensin 1-13, angiotensin 1-14, angiotensin 1-7, angiotensin 1-9, angiotensin 3-7, angiotensin 3-8, angiotensin I, angiotensin II, angiotensin III, A-type natriuretic peptide (ANP), apelin 13, apelin 36, big gastrin, B-type natriuretic peptide 32 (BNP 32), bradykinin, benzoyl-Gly-His-Leu, chymostatin, C-type natriuretic peptide 22 (CNP 22), arginine-deficient bradykinin (Des-Arg-bradykinin), leucine-terminal enkephalin (Leu-enkephalin), methionine-terminal enkephalin (Met-enkephalin), growth hormone (GH), gastric inhibitory peptide (GIP), glucagon-like peptide 1 (GLP-1), glucagon-like peptide 2 (GLP-2), glucagon, growth hormone releasing factor (GRF), insulin, luteinizing hormone releasing hormone (LH-RH), melanin-concentrating hormone (MCH), α-melanocyte stimulating hormone (α-MSH), motilin, neurotensin, neuropeptide Y (NPY), oxytosin, pituitary adenylate cyclase activating polypeptide 38 (PACAP38), prolactin-releasing peptide (PrRP31), pyroglutamic apelin 13 (Pyr-apelin 13), secretin, somatostatin, substance P, [D-Argl, D-Pro2,D-Trp7,9, Leul1]-substance P, [D-Pro2,D-Trp7,9]-substance P, urotensin II, or vasoactive intestinal peptide (VIP) (all from Peptide Institute, Inc.). The cleavage of the substrate peptides was confirmed by analyzing and comparing the reaction of a sample with the enzyme solution to with that of a sample with added ammonium hydrogen carbonate buffer instead of the enzyme, by high-performance liquid chromatography (HPLC) (LC-10AS manufactured by Shimadzu Co., Ltd.).
TSK-gel ODS-80 Ts column, manufactured by TOSOH
Column temperature: 40° C.
Measurement wavelength: 220 nm
Compositions of solvent solutions
Solution A: 10 mM potassium dihydrogen phosphate buffer, pH 7.4 to 8.0
Solution B: mixture solution of 90% acetonitrile: 10% ultra-pure water

[2] = target: T2, purified protein solution (signal-FLAG-ARS-extracellular protein) (Homo sapiens, UniProt Q7Z410, INS90FVSSFQKTELEASCVGCSVLNYRDGNSSVLVHFQ); assay: Enzyme activity of purified recombinant protein using synthetic peptides; settings: substrate 200 μM or 400 μM, ammonium hydrogen carbonate buffer, 37° C. for one hour; versus buffer control
T2 construct: made in house; host or cells: HEK293-EBNA
T2 sequence (Q7Z410 with tags, fused parts or gaps INS90FVSSFQKTELEASCVGCSVLNYRDGNSSVLVHFQ): T1 sequence (Q7Z410 with tags, fused parts or gaps INS90FVSSFQKTELEASCVGCSVLNYRDGNSSVLVHFQ)
T2 sequence (Q7Z410 with tags, fused parts or gaps): T1 sequence (Q7Z410 with tags, fused parts or gaps)
Experimental: Using a cell expressing the signal-FLAG-ARS-extracellular protein, a recombinant protein secreted into the liquid culture of the cell was extracted and purified. Specifically, the transfected HEK293EBNA cells were incubated by the same method as in Example 7 to about 80% confluence, from which the culture medium was then removed. Instead, a culture medium containing 4% serum was added, for further incubation under conditions of 37° C. and a carbon dioxide concentration of 5% for another 4 days. The culture supernatant was recovered 4 days later; filtered through a 0.22-μm filter (Zartor); and adsorbed on an ANTI-FLAG M2-AGAROSE AFFINITY GEL (Sigma) column equilibrated with TBS buffer by a routine method. Subsequently, about 50 ml of the TBS buffer was used for washing the column. Then, 6 ml of […] glycine hydrochloride solution of pH 2.2 was passed through the column to obtain each 1 ml fraction. To the separated fractions, 100 μl of 1 M Tris-HCl of pH 8 was immediately added to adjust the pH. The individual fractions thus obtained were confirmed by Western blotting using an antibody against the FLAG tag added to the N terminus (mouse anti-FLAG monoclonal antibody M2; Sigma). Specifically, the eluted fractions were electrophoresed on SDS/4% to 20% acrylamide gel (Daiichi Pure Chemicals Co., Ltd.) (under reducing conditions) and then transferred on PVDF membrane (Millipore) using a blotting apparatus. After adding Block Ace (DAINIPPON PHARMACEUTICAL CO., LTD.) for blocking to the transferred PVDF membrane, a biotinylated mouse anti-FLAG monoclonal antibody (M2; Sigma) and horseradish peroxidase-labeled streptoavidin (Amersham Pharmacia) were sequentially reacted. After reaction, it was confirmed that which eluted fractions contained the protein, using ECL Western blotting detection system (Amersham Pharmacia).
Using a synthetic peptides which have the C terminus labeled wit MCA (4-methyl-coumaryl-7-amide) by the same method as in Example 8, the cleavage activity of the enzyme purified in Example 10 was detected. Unless otherwise described, the method described in a paper (Yasuoka, S. et al., Am. J. Respir. Cell Mol Biol., Vol. 16, 300-308, 1997) was used. Specifically, using a synthetic peptides (Peptide Institute, Inc.) which have the C terminus labeled with MCA as substrates, the substrates were diluted with ammonium hydrogen carbonate buffer to become a final concentration of 200 μM or 400 μM in a 96-well plate. After the purified protein solution obtained in Example 10 or the ammonium hydrogen carbonate buffer as a control was added to the substrate solutions, the resulting mixtures were incubated at 37° C. for one hour. Subsequently, the fluorescence of AMC (7-amino-4-methyl-coumarin) released from the synthetic peptide by enzymatic cleavage was measured at a wavelength of 460 nm for measurement, using an excitation wavelength of 390 nm with a fluorescent plate reader (SAFIRE manufactured by TECAN). In FIG. 1, the open bar expresses buffer control, while the solid bar expresses the case of using purified protein solution. The first bar represents the case of using Boc-Glu(OBzl)-Ala-Arg-MCA as a substrate; the second bar represents the case of using Boc-Phe-Ser-Arg-MCA as a substrate; the third bar represents the case of using Boc-Leu-Ser-Thr-Arg-MCA as a substrate; the fourth bar represents the case of using Boc-Gln-Arg-Arg-MCA as a substrate; the fifth bar represents the case of using Suc-Ala-Ala-Pro-Phe-MCA as a substrate; the sixth bar represents the case of using Suc-Ala-Pro-Ala-MCA as a substrate; the seventh bar represents the case of using Boc-Glu-Lys-Lys-MCA as a substrate; the eighth bar represents the case of using Boc-Leu-Lys-Arg-MCA as a substrate; the ninth bar represents the case of using Boc-Leu-Gly-Arg-MCA as a substrate; and the tenth bar represents the case of using Boc-Asp(OBzl)-Pro-Arg-MCA as a substrate.

[3] = target: T3, enzyme solution treated with trypsin beads (purified signal-FLAG-ARS-extracellular protein) (Homo sapiens, UniProt Q7Z410, INS90FVSSFQKTELEASCVGCSVLNYRDGNSSVLVHFQ); assay: Substrate cleavage activity of purified protein solution treated with trypsin beads; settings: substrate 400 μM, ammonium hydrogen carbonate buffer, 37° C. for one hour
T3 construct: FLAG (N); made in house; host or cells: HEK293-EBNA
T3 sequence (Q7Z410 with tags, fused parts or gaps): T1 sequence (Q7Z410 with tags, fused parts or gaps)
T3 sequence (Q7Z410 with tags, fused parts or gaps INS90FVSSFQKTELEASCVGCSVLNYRDGNSSVLVHFQ): T1 sequence (Q7Z410 with tags, fused parts or gaps INS90FVSSFQKTELEASCVGCSVLNYRDGNSSVLVHFQ)
Experimental: By the same method as in Example 9, an enzyme solution treated with trypsin beads was obtained, using the purified protein solution. Then, the substrate cleavage activity of the enzyme solution was measured by the same method as in Example 8. Specifically, synthetic peptide substrates were diluted in ammonium hydrogen carbonate buffer to become a final concentration of 400 μM in a 96-well plate. After the enzyme solution described above was mixed into the resulting diluted substrates, the mixture were incubated at 37° C. for one hour. Subsequently, the fluorescence of AMC released from the synthetic peptide by enzymatic cleavage were measured.

A-type natriuretic peptide [ANP] was tested, and the “cleavage of physiologically active peptide by enzyme sample (HPLC)” value [1] was “selectively cleaved”.

With Boc-Leu-Lys-Arg-{AMC} the “cleavage of synthetic peptide by purified protein solution (fluorescence of released AMC)” value [2] was “cleaved” and the “cleavage of synthetic peptide by enzyme solution treated with trypsin beads (fluorescence of released AMC)” value [3] was “cleaved”.

Boc-Asp(OBn)-Pro-Arg-{AMC} was tested, and the “cleavage of synthetic peptide by purified protein solution (fluorescence of released AMC)” value [2] was “cleaved” and the “cleavage of synthetic peptide by enzyme solution treated with trypsin beads (fluorescence of released AMC)” value [3] was “cleaved”.

For vasoactive intestinal peptide [VIP], the “cleavage of physiologically active peptide by enzyme sample (HPLC)” value [1] was “selectively cleaved”.

In the case of Boc-Glu-Lys-Lys-{AMC}, the “cleavage of synthetic peptide by purified protein solution (fluorescence of released AMC)” value [2] is reported as “cleaved” and the “cleavage of synthetic peptide by enzyme solution treated with trypsin beads (fluorescence of released AMC)” value [3] is reported as “cleaved”.

For “Boc-Leu-Ser-Thr-Arg-MCA (Boc-LSTR-{AMC}; SMILES Cc1cc(=O)oc2cc(NC(=O)[C@H](CCCNC(=N)N)NC(=O)[C@@H](NC(=O)[C@H](CO)NC(=O)[C@H](CC(C)C)NC(=O)OC(C)(C)C)[C@@H](C)O)ccc12) [synthetic peptide substrate labeled with MCA at the C terminus]”, the “cleavage of synthetic peptide by purified protein solution (fluorescence of released AMC)” value [2] was “cleaved” and the “cleavage of synthetic peptide by enzyme solution treated with trypsin beads (fluorescence of released AMC)” value [3] was “cleaved”.

For melanin-concentrating hormone [MCH], the “cleavage of physiologically active peptide by enzyme sample (HPLC)” value [1] was “selectively cleaved”.

In the case of neuropeptide Y [NPY], the “cleavage of physiologically active peptide by enzyme sample (HPLC)” value [1] is reported as “selectively cleaved”.

In the case of Boc-Leu-Gly-Arg-{AMC}, the “cleavage of synthetic peptide by purified protein solution (fluorescence of released AMC)” value [2] is reported as “cleaved” and the “cleavage of synthetic peptide by enzyme solution treated with trypsin beads (fluorescence of released AMC)” value [3] is reported as “cleaved”.

With “α-melanocyte stimulating hormone [α-MSH]” the “cleavage of physiologically active peptide by enzyme sample (HPLC)” value [1] was “selectively cleaved”.

In the case of C-type natriuretic peptide 22 [CNP], the “cleavage of physiologically active peptide by enzyme sample (HPLC)” value [1] is reported as “selectively cleaved”.
